Data on one molecule can be found in patent publication US20220340673A1 (HARBOUR BIOMED SUZHOU, published 2022).

The target of assay [1] is T1, cynomolgus monkey BCMA on cells (HEK293T/cynoBCMA) (cynomolgus monkey, UniProt A0A2K5UD97 1-183).
T1 construct: whole, on cells
Kind of assay: FACS on HEK293T cell strain overexpressing cynomolgus monkey BCMA [B), (C].

Assay [2] concerns the target T2, human BCMA on cells (HEK293T/huBCMA; NCI-H929) (human, UniProt Q02223 1-184).
T2 construct: whole, on cells; also called human BCMA molecules on NCI-H929 cell line
T2 sequence (looked up): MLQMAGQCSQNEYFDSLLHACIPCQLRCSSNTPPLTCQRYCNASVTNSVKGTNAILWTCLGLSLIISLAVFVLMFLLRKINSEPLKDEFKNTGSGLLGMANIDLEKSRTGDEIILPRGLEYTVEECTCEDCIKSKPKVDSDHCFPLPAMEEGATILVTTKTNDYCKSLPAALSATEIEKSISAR
As to the kind of experiment: FACS on NCI-H929 cell line [B]. The procedure:
To study the binding activity of the BCMA arm of the BCMA×CD3 bispecific antibody to human BCMA, NCI-H929 cell line with highly expressed BCMA was used for binding experiments with human BCMA at cellular level. Briefly, NCI-H929 cell suspensions were collected. The cell density was adjusted to 1×10⁶ cells/mL, and the cells were inoculated in 96 well V-bottom plates at 100 μL cells/well (Corning, Cat#: 3894), followed by the addition of test antibodies at 100 μL/well, which is gradient diluted at 3 folds of the concentration with 2 folds of the final concentration. Cells were incubated at 4° C. for 2 hours in the dark. Afterwards, cells were washed twice with 100 μL/well of pre-cooled PBS, centrifuged at 500 g for 5 min at 4° C., and followed by discarding the supernatant. 100 μL/well of fluorescent secondary antibody (Alexa Fluor 488-conjugated AffiniPure Goat Anti-Human IgG, Fcγ Fragment Specific, Jackson, Cat#:109-545-06, 1:500 dilution) was added and incubated at 4° C. for 1 hour in the dark. Cells were washed twice with 100 μL/well of pre-cooled PBS, centrifuged at 500 g, 4° C. for 5 min, and followed by discarding the supernatant. Finally, the cells were resuspended with 200 μL/well of pre-cooled PBS, and the fluorescence luminescence signal values were read by BD FACS CANTOII.

For assay [3], the target named is T3, cynomolgus monkey CD3 on cynomolgus monkey T cells (cynomolgus monkey, UniProt Q95LI5 22-198).
T3 construct: whole, on cells; CD3 complex on primary T cells
T3 sequence (Q95LI5 22-198): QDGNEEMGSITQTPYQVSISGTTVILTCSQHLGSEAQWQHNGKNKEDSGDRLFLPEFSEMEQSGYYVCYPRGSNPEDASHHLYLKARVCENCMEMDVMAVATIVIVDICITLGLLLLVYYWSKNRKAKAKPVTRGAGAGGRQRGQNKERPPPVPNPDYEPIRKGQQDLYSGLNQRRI
As to the kind of experiment: FACS on cynomolgus monkey T cells [B]. On the procedure:
To study the in vitro binding activity of the CD3 arm of the BCMA×CD3 bispecific antibody, human and cynomolgus monkey T cells were used for antibody binding experiments at cellular level. Briefly, the density of human and cynomolgus monkey T cells was adjusted to 1×10⁶ cells/mL, respectively. Cells were inoculated at 100 μL cells/well in a 96 well V-bottom plate (Corning, Cat#: 3894), followed by the addition of test antibodies at 100 μL/well, which is gradient diluted at 3 folds of the concentration with 2 folds of the final concentration. Cells were incubated at 4° C. for 1 hour in the dark. Afterwards, cells were washed twice with 100 μL/well of pre-cooled PBS, centrifuged at 500 g in 4° C. for 5 min, and followed by discarding the supernatant. 100 μL/fluorescent secondary antibody (Alexa Fluor 488-conjugated AffiniPure Goat Anti- Human IgG, Fcγ Fragment Specific, Jackson, Cat#:109-545-06, 1: 500 dilution) was added and incubated for 30 min at 4° C. in the dark. Cells were washed twice with 100 μL/well of pre-cooled PBS, centrifuged at 500 g, 4° C. for 5 min, and followed by discarding the supernatant. Finally, the cells were resuspended with 200 μL/well of pre-cooled PBS, and the fluorescence luminescence signal values were read by BD FACS CANTOII.

The target in assay [4] is T2, human BCMA on cells (HEK293T/huBCMA; …). Kind of assay: FACS on HEK293T cell strain overexpressing human BCMA [C]. An excerpt:
To study the in vitro binding activity of the BCMA arm of the BCMA×CD3 bispecific antibody, HEK293T cell strain overexpressing human BCMA (HEK293T/huBCMA) and HEK293T cell strain overexpressing cynomolgus monkey BCMA (HEK293T/cynoBCMA) were used for antibody binding experiments at cellular level. Briefly, HEK293T/huBCMA cells and HEK293T/cynoBCMA cells were digested and resuspended with DMEM complete medium. The cell density of the two was adjusted to 1×10⁶ cells/mL, respectively. Cells were inoculated at 100 μL cells/well in a 96 well V-bottom plate (Corning, Cat#: 3894), followed by the addition of test antibodies at 100 μL/well, which is gradient diluted at 3 folds of the concentration with 2 folds of the final concentration. Cells were incubated at 4° C. for 1 hour in the dark. Afterwards, the cells were washed twice with 100 μL/well of pre-cooled PBS, centrifuged at 500 g for 5 min at 4° C., and followed by discarding the supernatant. 100 μL/well of fluorescent secondary antibody (Alexa Fluor 488-conjugated AffiniPure Goat Anti-Human IgG, Fcγ Fragment Specific, Jackson, Cat#: 109-545-06, 1:500 dilution) was added and incubated for 30 min at 4° C. in the dark. […] Finally, the cells were resuspended with 200 μL/well of pre-cooled PBS, and the fluorescence luminescence signal values were read by BD FACS CANTOII. […]

T1 sequence (A0A2K5UD97 entry or part of it): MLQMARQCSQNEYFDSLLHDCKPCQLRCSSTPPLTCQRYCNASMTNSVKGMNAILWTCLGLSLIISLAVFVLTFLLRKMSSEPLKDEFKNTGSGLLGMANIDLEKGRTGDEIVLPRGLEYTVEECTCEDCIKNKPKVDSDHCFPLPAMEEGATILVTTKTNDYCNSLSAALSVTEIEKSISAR

B1: positive control 2, PR002199 (anti-BCMA (TNB308902) x CD3 (TNB_F2B) bispecific antibody) (bispecific antibody, human IgG1, kappa, L234A L235A)
heavy 1: EVQLVESGGGLVQPGRSLRLSCAASGFTFDDYAMHWVRQAPGKGLEWVSGISWNSGSIGYADSVKGRFTISRDNAKNSLYLQMNSLRAEDTALYYCAKDSRGYGDYRLGGAYWGQGTLVTVSSASTKGPSVFPLAPSSKSTSGGTAALGCLVKDYFPEPVTVSWNSGALTSGVHTFPAVLQSSGLYSLSSVVTVPSSSLGTQTYICNVNHKPSNTKVDKKVEPKSCDKTHTCPPCPAPEAAGGPSVFLFPPKPKDTLMISRTPEVTCVVVDVSHEDPEVKFNWYVDGVEVHNAKTKPREEQYNSTYRVVSVLTVLHQDWLNGKEYKCKVSNKALGAPIEKTISKAKGQPREPQVYTLPPCREEMTKNQVSLWCLVKGFYPSDIAVEWESNGQPENNYKTTPPVLDSDGSFFLYSKLTVDKSRWQQGNVFSCSVMHEALHNHYTQKSLSLSPGK
light: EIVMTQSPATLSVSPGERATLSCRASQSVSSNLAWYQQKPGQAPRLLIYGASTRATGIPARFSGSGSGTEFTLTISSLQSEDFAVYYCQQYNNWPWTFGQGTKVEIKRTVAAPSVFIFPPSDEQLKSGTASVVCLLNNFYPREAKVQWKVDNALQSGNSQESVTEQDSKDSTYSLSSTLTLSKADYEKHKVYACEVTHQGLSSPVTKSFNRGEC
heavy 2: EVQLLESGGGLVQPGGSLRLSCAASGFTVSSYGMSWVRQAPGKGPEWVSGIRGSDGSTYYADSVKGRFTISRDNSKNTLYLQMNSLRAEDTAVYYCAKQGENDGPFDHRGQGTLVTVSSGGGGSEVQLLESGGGLVQPGGSLRLSCAASGFTVSSYGMSWVRQAPGKGPEWVSGIRGSDGSTYYADSVKGRFTISRDNSKNTLYLQMNSLRAEDTAVYYCAKQGENDGPFDHRGQGTLVTVSSASEPKSSDKTHTCPPCPAPEAAGGPSVFLFPPKPKDTLMISRTPEVTCVVVDVSHEDPEVKFNWYVDGVEVHNAKTKPREEQYNSTYRVVSVLTVLHQDWLNGKEYKCKVSNKALGAPIEKTISKAKGQPREPQVCTLPPSREEMTKNQVSLSCAVKGFYPSDIAVEWESNGQPENNYKTTPPVLDSDGSFFLVSKLTVDKSRWQQGNVFSCSVMHEALHNHYTQKSLSLSPGK
notes: Three chains: HC1 (anti-CD3 heavy), LC (anti-CD3 kappa light), HC2 (two tandem anti-BCMA VH, then Fc)
On to B1, for which the binding result was “no binding (tested: 100 nM)” in assay [1] and “no binding (tested: about 300 nM)” in assay [3]. Also, the EC50 (commonly the concentration needed to bring the measured effect to its halfway point) in assay [2] came out at 8.7 nM; in assay [4] it was 0.602 nM.
